In patent US20250009876A1 (H LUNDBECK A S, published 2025):

T1: PACAP38 (Pituitary Adenylate Cyclase-Activating Polypeptide, 38 amino acids) (human, not fully specified; the C-terminal lysine is amidated)
T1 construct: In the HTRF and PC-12 cell assays the peptide was N-terminally or C-terminally biotinylated; unlabelled in SPR; also called human PACAP38; huPACAP (1-38)
T1 peptide: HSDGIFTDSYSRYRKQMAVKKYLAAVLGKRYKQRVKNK

T2: VIP (Vasoactive Intestinal Peptide) (human)
T2 construct: also called human VIP
T2 peptide: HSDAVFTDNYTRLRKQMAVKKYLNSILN

T3: PACAP27 (Pituitary Adenylate Cyclase-Activating Polypeptide, 27 amino acids) (human, the C-terminal leucine is amidated)
T3 construct: also called human PACAP27
T3 peptide: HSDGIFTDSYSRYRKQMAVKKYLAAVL


Experiments:
[1] = molecular target: T1, PACAP38 (Pituitary Adenylate …); assay: inhibition of 100 nM biotinylated PACAP38 binding to PAC1-R-expressing PC-12 cells, Eu-streptavidin TRF
Protocol: (§1) To identify antibodies that block PACAP38 binding to PAC1-R-expressing cells, adherent PC-12 cells (ATCC, Manassas, VA) expressing PAC1-R were used in a Europium-based PAC1-R-expressing cells binding assay. Antibody solutions were incubated with N-terminal biotinylated PACAP38 at 10× the final concentration (100 nM or 30 nM) for 1 hr, then added to PC-12 cells that were plated 24 hrs prior in black clear bottom 96 well plates (COSTAR™, Corning Incorporated, Corning, NY) and further incubated for 1 hr at room temperature. After three washes, the cells were incubated with 20 μl Europium-labeled streptavidin (PerkinElmer, Waltham, MA) for 1 hr at room temperature. Cells were washed three times, then 20 μl DELFIA® Enhancement solution (PerkinElmer, Waltham, MA) was added to each well and incubated for 15 minutes with gentle shaking. Plates were read (Time Resolved Fluorescence (“TRF”)) on SPECTRAMAX® (Molecular Devices, Sunnyvale, CA) plate reader.
(§2) FIGS. 14A-14H are representative of the inhibition curves obtained by this method (results are shown for Ab10, Ab20, Ab21, Ab1.H, Ab10.H, Ab21.H, Ab22, and Ab23, respectively) wherein the PAC1-R expressing cells were PC-12 cells.

[2] = molecular target: T2, VIP (Vasoactive Intestinal Peptide); assay: SPR (ProteOn XPR36), antibody amine-coupled, peptide analyte, 1:1 Langmuir fit; SPR, direct binding of VIP to the antibody; weak, KD 2.8E-07 M
[3] = molecular target: T1, PACAP38 (Pituitary Adenylate …); assay: HTRF binding assay, antibody dilution series on 35 nM biotinylated PACAP38
Protocol: In parallel, 10 μl of an antibody dilution series (highest final concentration of 100 nM) were incubated with 10 μl of N-terminal or C-terminal biotinylated PACAP38 (35 nM final) alone, or in combination with either PACAP27 (350 nM final) or VIP (350 nM final), i.e., 10× PACAP27 or 10× VIP, respectively, in a HTRF plate. 20 μl of Eu³⁺ cryptate labeled anti-hu Fc donor and 20 μl of d2-labeled streptavidin acceptor were added to each well and incubated for 1 hour at room temperature. Fluorescence was measured at 620 and 665 nm with a delay of 300 usec.
EC₅₀ values, i.e. the concentration of an antibody that yields a response halfway between the baseline and the maximum value within a specified time period, were computed for each antibody based upon their binding curves and are shown in Table 1 below. […] A humanized form of antibody Ab1 identified by an appended “.H”, i.e., Ab1.H also bound PACAP38 with high affinity.

[4] = molecular target: T2, VIP (Vasoactive Intestinal Peptide); assay: SPR (ProteOn XPR36), antibody amine-coupled, peptide analyte, 1:1 Langmuir fit; SPR, direct binding of VIP to the antibody; weak, KD 1.1E-06 M
[5] = molecular target: T1, PACAP38 (Pituitary Adenylate …); assay: inhibition of 30 nM biotinylated PACAP38 binding to PAC1-R-expressing PC-12 cells, Eu-streptavidin TRF
Protocol: as §1, §2

[6] = molecular target: T2, VIP (Vasoactive Intestinal Peptide); assay: SPR (ProteOn XPR36), antibody amine-coupled, peptide analyte, 1:1 Langmuir fit
[7] = molecular target: T3, PACAP27 (Pituitary Adenylate …); assay: inhibition of 0.1 nM 125I-PACAP27 binding to membranes with human PAC1-R long isoform, filter binding
Protocol: To identify antibodies that block PACAP27 binding to PAC1-R, antibodies at an initial concentration of 30 nM were diluted in incubation buffer (50 mM Hepes pH 7.4, 1 mM CaCl₂, 5 mM MgCl₂, 0.2% BSA) and serial 1:3 dilutions were performed. Antibody dilutions (30 nM, 10 nM, 3 nM, 1 nM, 0.3 nM, 0.1 nM, 0.03 nM, 0.01 nM, 0.003 nM and 0.001 nM) were then mixed and pre-incubated at 25° C. for 30 minutes with 0.1 nM of ¹²⁵I-labelled PACAP27 in incubation buffer. The antibody: ¹²⁵I-labelled PACAP27 mixture was then added to 0.5 μg aliquots of cell membranes derived from Chem-1 cells expressing human recombinant PAC1-R long isoform in incubation buffer. The mixture was then incubated for 1 hour at 25° C. Following incubation, the samples were filtered and washed. Afterward, the filters were counted to quantitate ¹²⁵I-labelled PACAP27. As an experimental control, non-specific binding to the cell membranes was estimated using 0.1 μM of […] PACAP27.

Row | IC50 [1] [nM] | Kd [2] [nM] | koff [2] [s⁻¹] | kon [2] [M⁻¹ s⁻¹] | EC50 [3] [nM] | Kd [4] [nM] | koff [4] [s⁻¹] | kon [4] [M⁻¹ s⁻¹] | IC50 [5] [nM] | Kd [6] [nM] | koff [6] [s⁻¹] | kon [6] [M⁻¹ s⁻¹] | IC50 [7] [nM] | Binder
1 | 17.8 | 280 | 0.01 | 37000 | 0.36 |  |  |  |  |  |  |  |  | Ab10 (antibody, human IgG1, kappa, N297A, V domains shown, Full-length anti-PACAP antibody; rabbit variable regions cloned onto human constant regions (rabbit/human chimeric), expressed in HEK-293) VH: QSVEESGGRLVTPGTPLTLTCTVSGIDLNSYYMTWVRQAPGKGLEWIGFIDAGGDAYYASWAKGRFTISKTSTTVDLKITSPTTEDTATYFCARDLDLWGQGTLVTVSS VL: AAVLTQTPSPVSAAVGGTVTINCQSSESVYGNYLAWFQQKPGQPPKLLIYEASKLESGVPSRFSGSGSGTQFTLTISDLQCDDAATYYCAGGDISEGVAFGGGTEVVVKR
2 | 32.7 |  |  |  | 0.38 | 1100 | 0.48 | 450000 |  |  |  |  |  | Ab20 (antibody, human IgG1, kappa, N297A, V domains shown, Full-length anti-PACAP antibody; rabbit/human chimeric) VH: QSVEESGGRLVTPGTPLTLTCTVSGIDLSSYYMSWVRQAPGKGLEWIGFIDTDGSAYYATWAKGRFTISKTSTTVDLKITSPTTEDTATYFCARDLDLWGPGTLVTVSS VL: AAVLTQTPSPVSAAVGGTVSISCQSSESVYSNYLAWFQQKPGQPPKFLIYEASKLASGVPSRFKGSGSGTQFTLTISDVQCDDAGTYYCAGGYSSEGVAFGGGTEVVVKR
3 |  |  |  |  |  |  |  |  | 14.5 | 100 | 0.039 | 380000 | 0.22 | Ab10.H (antibody, human IgG1, kappa, N297A, Full-length humanized variant of Ab10) heavy: not shown light: DAQLTQSPSTLSASVGDRVTITCQSSESVYGNYLAWFQQKPGKAPKFLIYEASKLESGVPSRFSGSGSGTEFTLTISSLQPDDFATYYCAGGDISEGVAFGGGTKVEIKRTVAAPSVFIFPPSDEQLKSGTASVVCLLNNFYPREAKVQWKVDNALQSGNSQESVTEQDSKDSTYSLSSTLTLSKADYEKHKVYACEVTHQGLSSPVTKSFNRGEC
